The values below come from patent publication US8445633B2, “Peptide having bindability with adiponectin, analysis method utilizing same peptide, and analysis device utilizing same peptide” (Sharp Kabushiki Kaisha, priority 2010, dated 2013).

The target in experiment [1] is T1, adiponectin (Homo sapiens, UniProt Q15848).
T1 construct: purchased R&D Systems
T1 sequence (Q15848 19-244): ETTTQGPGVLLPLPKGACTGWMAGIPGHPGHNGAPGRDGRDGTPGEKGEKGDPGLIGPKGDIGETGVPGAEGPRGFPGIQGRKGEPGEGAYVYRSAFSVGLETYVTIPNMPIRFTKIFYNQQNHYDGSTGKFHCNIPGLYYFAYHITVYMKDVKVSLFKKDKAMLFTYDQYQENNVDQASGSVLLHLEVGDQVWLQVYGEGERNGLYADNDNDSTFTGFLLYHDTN
The experiment can be described thus: Bond between peptide spot-synthesized on cellulose membrane and adiponectin, sandwich enzyme immunoassay (HRP-tagged anti-adiponectin antibody, Amplex Red fluorescence). Type of experiment: binding. As to conditions: Example 3, FIG. 5; for bindability with adiponectin: conclusion from fluorescent intensity; for fluorescent intensity in the synthesis spot: peptides with conservative substitution compared with parent peptides SEQ ID NOs: 8 and 9. An excerpt:
In order to identify an amino-acid sequence having bindability with adiponectin, a peptide was synthesized on a cellulose membrane by use of a peptide synthesis device (Model MultiPep RS (Intavis AG)) utilizing a Fmoc-based peptide spot synthesis.
Immobilized on the cellulose membrane was polyethylene glycol having a terminal modified with an amino group. An Fmoc amino acid was bound with the amino group by using DIC (diisopropylcarbodiimide)/HOBt (hydroxybenzotriazole). After that, Fmoc was removed.
The cycle of the removal of Fmoc and the subsequent binding was repeated to synthesis a peptide. Then, N-terminals and side chains of all the peptides were deprotected. Thereby, peptides consisting of amino-acid sequences represented by SEQ. ID NOs: 1 to 15 were obtained.
The sandwich technique which is one of enzyme immunoassays was performed to measure the bond between each of the peptides thus synthesized and adiponectin.
First, a cellulose membrane was soaked in ethanol. Then, the cellulose membrane was continuously washed with phosphate buffered saline (PBS) (pH 7.4) so that ethanol contained in the cellulose membrane was replaced with PBS. In order that nonspecific binding is inhibited, the cellulose membrane was incubated overnight in a blocking solution (PBS containing 1% milk powder).
Then, the cellulose membrane was incubated for 1 hour in a blocking solution (PBS containing 1% milk powder) which contains 0.25 μg/mL human adiponectin (R&D Systems). Then, the cellulose membrane was washed with PBST (PBS containing 0.1% (v/v) Tween 20). Then, the cellulose membrane was incubated for 1 hour in a blocking solution containing […] anti-human adiponectin antibody (R&D Systems) which is tagged with HRP, and then washed with PBST five times.
After that, 100 μM fluorescent substrate (Amplex Red (Invitrogen)) containing 1 mM hydrogen peroxide was added to the cellulose membrane, and then they react with each other for 10 minutes. A fluorescent intensity in a synthesis spot was measured in such a manner that an […] wavelength of 595 nm of fluorescence from the fluorescent substrate was measured by a fluorescence imager (GE Healthcare) by exciting, with light of 540 nm, the fluorescent substrate in the synthesis spot. A bond strength of the peptide was worked out from the fluorescent intensity in the synthesis spot.
A peptide consist of the amino-acid sequence represented by SEQ ID NO. 16 was synthesized as in Example 1. Then, the bond between the synthesized peptide and adiponectin was measured as in Example 1.
Then, the bond between each of the synthesized peptides and adiponectin was measured as in Example 1.

For experiment [2], the target named is T1, adiponectin. Nature of the experiment: Bond between adiponectin immobilized onto a microplate and biotin-tagged peptide, enzyme immunoassay (HRP-tagged streptavidin, TMB). Type of experiment: binding. As to conditions: Example 2, FIG. 4; for absorbance at 450 nm: 1 mM peptide with C-terminal lysine tagged with biotin, compared with peptide of SEQ ID NO. 17 (Comparative Example 2); for bindability with adiponectin: conclusion from absorbance. The method, then: As described below, the bond between adiponectin immobilized onto a microplate and each of peptides tagged with biotin (biotin-tagged peptide) was measured by using enzyme immunoassay.
First, peptides were prepared in such a manner that lysine was added to the C-terminal of each of peptides having amino-acid sequences represented by SEQ ID NOs: 14 and 15. Then, the amino group of a lysine side chain of each of the peptides thus prepared was tagged with biotin so that biotin-tagged peptides were prepared.
5 μg/mL adiponectin (R&D Systems) prepared with PBS was dispensed to wells of a 96-well microplate in an amount of 100 μL per well. Then, the peptides were incubated for 1 hour at 37° C. Adiponectin was thus immobilized in the wells. In order to inhibit nonspecific binding, a blocking solution (Protein-Free Blocking Buffer, PIERCE) was then added to the wells in an amount of 300 μL per well. Then, the peptides were incubated for 2 hours at room temperature. Then, the wells were washed three times with PBST (PBS containing 0.1% (v/v) Tween 20). Then, 1 mM biotin-tagged peptide was added to the wells in an amount of 100 μL per well. Then, the peptides were incubated for 1 hour at room temperature. Then, the wells were washed with PBST again.
Then, HRP-tagged streptavidin (R&D Systems) diluted with 200 parts of the blocking solution (Protein-Free Blocking Buffer, PIERCE) was added to the well in an amount of 100 μL per well. Then, the streptavidin was incubated for 1 hour at room temperature. Then, the wells were washed with PBST. Then, TMB (tetramethylbenzidine) was added to the wells in an amount of 100 μL per well so that they react with each other for 20 minutes. Then, the reaction was stopped by adding 1 M of HCL to the wells in an amount of 100 μL per well. Then, an absorbance at 450 nm was measured by use of a microplate reader (Bio-Rad).
The bond between a peptide having the amino-acid sequence represented by SEQ ID NO. 17 and adiponectin as in Example 2.

For “18 (MGSFVPY; Adiponectin binding peptide) [compound 18]”, in the experiment with adiponectin [1], the bindability with adiponectin entry is recorded as “had the bindability with adiponectin”; the “fluorescent intensity in the synthesis spot” value is “close to those of the peptides having the amino-acid sequences represented by SEQ ID NOs: 8 and 9”.
In the case of “19 (KFATPKHR; Adiponectin binding peptide) [compound 19]”, in the experiment with adiponectin [1], the bindability with adiponectin entry is recorded as “had the bindability with adiponectin”; the “fluorescent intensity in the synthesis spot” value is “close to those of the peptides having the amino-acid sequences represented by SEQ ID NOs: 8 and 9”.
On to “15 (ILLPLRIN; Adiponectin binding peptide) [compound 15]”, for which, in the experiment with adiponectin [2], the “absorbance at 450 nm” value was “significantly higher in absorbance” and the bindability with adiponectin result was “had the bindability with adiponectin”.
For “14 (ITPIHWVK; Adiponectin binding peptide) [compound 14]” the same measures were “significantly higher in absorbance” and “had the bindability with adiponectin”.
